From paper PMC6505963

Molecular target: GST-BLM RQC loopΔ10 (human) (UniProt P54132)
Experiment: EMSA
Conditions: 5 uM protein, FP: 10 mM Tris-HCl pH 7.5, 25 mM NaCl, 1 mM DTT, 100 pM DNA, 25 C, EMSA: 10 mM Tris-HCl pH 8.0, 2 mM DTT, 1 mM EDTA, 20% glycerol, 0.2 uM DNA, 4 C, 30 min

GST-BLM RQC loopΔ10 (human), sequence (P54132 1068-1209, stated change not applied): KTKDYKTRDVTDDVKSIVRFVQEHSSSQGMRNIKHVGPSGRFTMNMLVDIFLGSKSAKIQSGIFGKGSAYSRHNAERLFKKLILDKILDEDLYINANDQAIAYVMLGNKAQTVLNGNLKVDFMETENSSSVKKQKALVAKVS

## CTAGAACAGCATGTCCTAGCAAGCCAGAATTC / GAATTCTGGCTTGCTAGGACATCTTTGCCCAC / GTGGGCAAAGATGTCCTAGCAATGTAATCGTC / GACGATTACATTGCTAGGACATGCTGTTCTAG [Holliday junction (HJ)]
  binding signal (% loss of binding vs wild type): 50
